Laboratory results reported in the Immune Epitope Database (IEDB).

How the values were obtained:
HLA-A*02:06 = assay: IEDB peptide-MHC binding, purified MHC/competitive/radioactivity; filed as Kd, often an IC50 or EC50 that approximates it; ≥ and ≤ were set here for values at or beyond the usual limits of such assays
HLA-A*68:02 = assay: as above
HLA-B*53:01 = assay: as above
HLA-A*02:01 = assay: as above
HLA-B*44:02 = assay: as above
HLA-B*44:03 = assay: as above
HLA-B*40:01 = assay: as above
HLA-B*15:01 [1] = assay: as above
HLA-A*26:01 = assay: as above
HLA-A*02:03 = assay: as above
HLA-A*02:02 = assay: as above
HLA-A*30:01 = assay: as above; settings: source organism: Dengue virus 4 Philippines/H241/1956
HLA-A*30:02 = assay: as above
HLA-A*03:01 = assay: as above
HLA-A*01:01 = assay: as above
HLA-B*15:01 [2] = assay: IEDB peptide-MHC binding, purified MHC/competitive/fluorescence; filed as Kd, often an IC50 or EC50 that approximates it; ≥ and ≤ were set here for values at or beyond the usual limits of such assays; settings: source organism: Human immunodeficiency virus 1
HLA-B*46:01 = assay: as above; settings: source organism: Vibrio vulnificus CMCP6
HLA-B*51:01 = assay: as above
HLA-A*24:03 = assay: IEDB peptide-MHC binding, purified MHC/direct/fluorescence; filed as Kd, often an IC50 or EC50 that approximates it; ≥ and ≤ were set here for values at or beyond the usual limits of such assays
HLA-A*32:01 = assay: IEDB peptide-MHC binding, purified MHC/competitive/radioactivity; filed as Kd, often an IC50 or EC50 that approximates it; ≥ and ≤ were set here for values at or beyond the usual limits of such assays
HLA-B*58:01 = assay: IEDB peptide-MHC binding, purified MHC/direct/fluorescence; filed as Kd, often an IC50 or EC50 that approximates it; ≥ and ≤ were set here for values at or beyond the usual limits of such assays
HLA-B*57:01 = assay: as above
HLA-B*08:01 = assay: as above; settings: source organism: Cowpox virus
HLA-A*11:01 = assay: IEDB peptide-MHC binding, purified MHC/competitive/radioactivity; filed as Kd, often an IC50 or EC50 that approximates it; ≥ and ≤ were set here for values at or beyond the usual limits of such assays; settings: source organism: Dengue virus 2 Jamaica/1409/1983
HLA-B*07:02 = assay: IEDB peptide-MHC binding, purified MHC/direct/fluorescence; filed as Kd, often an IC50 or EC50 that approximates it; ≥ and ≤ were set here for values at or beyond the usual limits of such assays; settings: source organism: Orthohantavirus dobravaense
[3] = source organism: Dengue virus 3 Martinique/1243/1999
[4] = source organism: Dengue virus 4 Philippines/H241/1956
[5] = source organism: Dengue virus 2 Jamaica/1409/1983
[6] = source organism: Dengue virus 4 Dominica/814669/1981
[7] = source organism: Dengue virus 1 Brazil/97-11/1997
[8] = source organism: Hepatitis C virus (isolate BK)
[9] = source organism: Dengue virus 3 Singapore/8120/1995
[10] = source organism: Vaccinia virus WR
[11] = source organism: Dengue virus 2 Peru/IQT2913/1996
[12] = source organism: Vibrio vulnificus YJ016
[13] = source organism: Dengue virus 3 Sri Lanka/1266/2000
[14] = source organism: Orthohantavirus dobravaense
[15] = source organism: HIV-1 M:B_ARV2/SF2
[16] = source organism: Vaccinia virus Copenhagen
[17] = source organism: Trypanosoma cruzi

Sequence: EMREQHDAQV
- Kd (HLA-A*02:06; source organism: Homo sapiens): ≥ 68500 nM
- Kd (HLA-A*68:02; source organism: Homo sapiens): 456 nM

Sequence: NPTVDGIMTI
- Kd (HLA-B*53:01; [3]): 214 nM

Sequence: QIHLAIMAV
- Kd (HLA-A*68:02; [4]): 287 nM

Sequence: GLRDCTMLV
- Kd (HLA-A*02:01; source organism: hepatitis C virus genotype 1a): 421 nM

Sequence: VEMGEAAAI
- Kd (HLA-B*44:02; [4]): 12.9 nM
- Kd (HLA-B*44:03; [4]): 27.7 nM
- Kd (HLA-B*40:01; [4]): 134 nM

Sequence: TLITGNMSF
- Kd (HLA-B*15:01 [1]; [5]): 91.1 nM

Sequence: MAVGMVSILA
- Kd (HLA-A*68:02; [5]): 3.29 nM

Sequence: ITIAVASGL
- Kd (HLA-A*68:02; [6]): 31.1 nM

Sequence: ESITLATGPL
- Kd (HLA-A*68:02; [7]): 101 nM
- Kd (HLA-A*26:01; [7]): 1990 nM

Sequence: VLTDFKTWL
- Kd (HLA-A*02:06; [8]): 140 nM
- Kd (HLA-A*68:02; [8]): 2300 nM
- Kd (HLA-A*02:01; [8]): 4.06 nM
- Kd (HLA-A*02:03; [8]): 7.3 nM
- Kd (HLA-A*02:02; [8]): 1.56 nM

Sequence: KLRIKGMSY
- Kd (HLA-A*30:01): 18.6 nM
- Kd (HLA-A*30:02; [4]): 79.6 nM
- Kd (HLA-B*15:01 [1]; [4]): 38.5 nM
- Kd (HLA-A*03:01; [4]): 8.36 nM

Sequence: CPNERRAWNF
- Kd (HLA-B*53:01; [4]): 70.6 nM

Sequence: PPVSDLKYSW
- Kd (HLA-B*53:01; [6]): 1580 nM

Sequence: VSKKEGGAMY
- Kd (HLA-A*30:02; [5]): ≥ 69700 nM
- Kd (HLA-B*15:01 [1]; [5]): 84.8 nM
- Kd (HLA-A*01:01; [5]): 19900 nM

Sequence: LVGKLNWASQIY
- Kd (HLA-B*15:01 [2]): 2210 nM

Sequence: WELVDKERAL
- Kd (HLA-B*40:01; [4]): 24 nM

Sequence: LTAAVLLLV
- Kd (HLA-A*02:06; [9]): 120 nM
- Kd (HLA-A*01:01; [9]): 16700 nM
- Kd (HLA-A*68:02; [9]): 1.36 nM

Sequence: FAIGDWEPY
- Kd (HLA-B*46:01): 74.1 nM

Sequence: ITQLMPFGC
- Kd (HLA-A*02:01; source organism: Homo sapiens): 6290 nM

Sequence: EPINMFLFI
- Kd (HLA-B*51:01; source organism: Bacillus anthracis str. A0442): 465 nM

Sequence: MMLVPLITV
- Kd (HLA-A*02:06; [10]): ≥ 77100 nM
- Kd (HLA-A*68:02; [10]): 5160 nM
- Kd (HLA-A*02:03; [10]): ≥ 52100 nM
- Kd (HLA-A*02:02; [10]): 1020 nM

Sequence: MYLRTIYDL
- Kd (HLA-A*24:03; source organism: Rhodococcus erythropolis): 0.6 nM

Sequence: NMALKKIREL
- Kd (HLA-A*68:02; source organism: Homo sapiens): ≥ 60000 nM

Sequence: MSTYGWNLV
- Kd (HLA-A*01:01; [5]): 8500 nM
- Kd (HLA-A*68:02; [5]): 11.9 nM

Sequence: GTLALSLTF
- Kd (HLA-B*15:01 [1]; [4]): 36.2 nM
- Kd (HLA-A*32:01; [4]): 1370 nM

Sequence: NAVILQNAW
- Kd (HLA-B*53:01; [5]): 80.6 nM

Sequence: DTAWDFGSV
- Kd (HLA-A*68:02; [3]): 1.5 nM
- Kd (HLA-A*26:01; [3]): 172 nM

Sequence: RIKQKGILGY
- Kd (HLA-A*30:02; [11]): 1440 nM
- Kd (HLA-B*15:01 [1]; [11]): 152 nM

Sequence: WMSPTYQSW
- Kd (HLA-B*58:01; [12]): 8.3 nM
- Kd (HLA-B*57:01; [12]): 62.4 nM

Sequence: YACKQILHG
- Kd (HLA-B*15:01 [1]; [10]): 2270 nM

Sequence: VSGKLIHEW
- Kd (HLA-B*57:01; source organism: dengue virus type 3): 43.5 nM

Sequence: LEPPFGDSYI
- Kd (HLA-B*40:01; [4]): 6420 nM

Sequence: VTRGAVLTY
- Kd (HLA-A*30:02; [3]): ≥ 76900 nM
- Kd (HLA-B*15:01 [1]; [3]): 30 nM
- Kd (HLA-A*01:01; [3]): 3110 nM

Sequence: MLNTYGEGF
- Kd (HLA-B*15:01 [1]; [10]): 2.25 nM

Sequence: ATMANEMGFL
- Kd (HLA-A*68:02; [5]): 68.4 nM

Sequence: KEKVVGRII
- Kd (HLA-B*40:01; [4]): 2860 nM

Sequence: EMKTQLEEL
- Kd (HLA-A*68:02; source organism: Homo sapiens): 284 nM
- Kd (HLA-A*02:01; source organism: Homo sapiens): ≥ 20800 nM
- Kd (HLA-A*02:03; source organism: Homo sapiens): 81.3 nM

Sequence: KQITNELNY
- Kd (HLA-A*30:02; [4]): 9.99 nM
- Kd (HLA-B*15:01 [1]; [4]): 7.56 nM

Sequence: AEAIFKLTYQ
- Kd (HLA-B*44:02; [5]): 200 nM
- Kd (HLA-B*44:03; [5]): 267 nM
- Kd (HLA-B*40:01; [5]): 1430 nM

Sequence: GLDLQPCIDL
- Kd (HLA-A*68:02; source organism: Homo sapiens): ≥ 60000 nM

Sequence: ILGLNKIVRMY
- Kd (HLA-B*15:01 [2]): ≥ 20000 nM

Sequence: MSRRRIYVL
- Kd (HLA-B*08:01): 6 nM

Sequence: LTAIANQAAI
- Kd (HLA-A*01:01; [7]): 10200 nM
- Kd (HLA-A*68:02; [7]): 22.9 nM

Sequence: HPGFTILALF
- Kd (HLA-B*53:01; [3]): 1.04 nM

Sequence: SQHNYRQGY
- Kd (HLA-A*30:02; [4]): 23.5 nM
- Kd (HLA-B*15:01 [1]; [4]): 3.47 nM

Sequence: AAGLQDCTM
- Kd (HLA-A*02:01; source organism: Hepatitis C virus (isolate 1)): ≥ 50000 nM

Sequence: YMATTILEM
- Kd (HLA-B*15:01 [1]; [10]): 2.17 nM

Sequence: IYTLEYDGF
- Kd (HLA-A*24:03; source organism: Mycobacterium tuberculosis): 74.8 nM

Sequence: LLIVSGIFPY
- Kd (HLA-A*30:02; [13]): ≥ 60000 nM
- Kd (HLA-B*15:01 [1]; [13]): 2.26 nM
- Kd (HLA-A*01:01; [13]): 7500 nM
- Kd (HLA-A*26:01; [13]): 11200 nM

Sequence: KALIATATW
- Kd (HLA-B*58:01; [14]): 12.5 nM
- Kd (HLA-B*57:01; [14]): 25.3 nM

Sequence: RYPAIAGGI
- Kd (HLA-A*24:03; source organism: Burkholderia mallei): 3.3 nM

Sequence: TIMAAILAY
- Kd (HLA-A*30:02; [5]): 117 nM
- Kd (HLA-A*11:01): 164 nM
- Kd (HLA-B*15:01 [1]; [5]): 73.3 nM
- Kd (HLA-A*01:01; [5]): ≥ 26600 nM
- Kd (HLA-A*03:01; [5]): 28.8 nM
- Kd (HLA-A*26:01; [5]): 156 nM

Sequence: FLGKIWPSYK
- Kd (HLA-A*02:06; [15]): 3010 nM
- Kd (HLA-A*68:02; [15]): ≥ 41200 nM
- Kd (HLA-A*02:01; [15]): 89.9 nM
- Kd (HLA-A*02:03; [15]): 448 nM
- Kd (HLA-A*02:02; [15]): 449 nM

Sequence: VEDYGFGIF
- Kd (HLA-B*40:01; [7]): 388 nM

Sequence: ITPRSPSVEV
- Kd (HLA-A*68:02; [4]): 575 nM

Sequence: MVYKLVLLF
- Kd (HLA-B*15:01 [1]; [16]): 70.5 nM
- Kd (HLA-A*32:01; [16]): 330 nM

Sequence: AVWDQYKDL
- Kd (HLA-A*02:01; source organism: Lassa virus Josiah): 12500 nM

Sequence: AVFMLMETM
- Kd (HLA-B*15:01 [1]; [10]): 26 nM

Sequence: NPTAIFLTT
- Kd (HLA-B*53:01; [5]): 1680 nM

Sequence: DVSRPTTVM
- Kd (HLA-A*02:06; [17]): 15000 nM
- Kd (HLA-A*68:02; [17]): 1010 nM
- Kd (HLA-A*02:01; [17]): ≥ 69400 nM
- Kd (HLA-A*02:03; [17]): 15400 nM
- Kd (HLA-A*02:02; [17]): ≥ 33600 nM

Sequence: ETQHGTVLV
- Kd (HLA-A*68:02; [7]): 2.52 nM
- Kd (HLA-A*26:01; [7]): 4910 nM

Sequence: EVAETQHGTV
- Kd (HLA-A*68:02; [7]): 1.53 nM

Sequence: PLEGSEDRII
- Kd (HLA-A*68:02; source organism: Homo sapiens): ≥ 65200 nM
- Kd (HLA-A*02:01; source organism: Homo sapiens): ≥ 70300 nM

Sequence: LPTRCRLEI
- Kd (HLA-B*51:01; source organism: Kurkino virus): ≥ 20000 nM
- Kd (HLA-B*07:02): 3.9 nM

Sequence: ATPPSLVHF
- Kd (HLA-A*24:03; source organism: Giardia lamblia ATCC 50803): 152 nM

Sequence: LMTGTLAVF
- Kd (HLA-B*15:01 [1]; [7]): 0.4 nM

Sequence: IETLMLLAL
- Kd (HLA-B*44:02; [7]): 1340 nM
- Kd (HLA-B*40:01; [7]): 10.7 nM

Sequence: GEKALKLSWF
- Kd (HLA-B*44:02; [7]): 373 nM
- Kd (HLA-B*44:03; [7]): 135 nM
